Starred links: 1 amine or outer side, 2 acyl side, 3 side chain; linkers in the order of their positions; H or OH if unused. Positions of bridges follow the written chain, without caps; N, C: chain ends. Non-standard residues stand in square brackets, D forms with d. Primed or numbered codes have the meaning given here. PyrS2″ = (S)-3-amino-1-((pent-4-en-1-yloxy)carbonyl)pyrrolidine-3-carboxylic acid (stapling residue), C=CCCCOC(=O)N1CC[C@@](N[*:1])(C(=O)[*:2])C1; B5(4) = 2,2-bis(4-pentenyl)glycine = 2-amino-2-(pent-4-en-1-yl)hept-6-enoic acid (stitching residue), C=CCCCC(CCCC=C)(N[*:1])C(=O)[*:2]; TfeGA = (S)-2-amino-3-((carboxymethyl)(2,2,2-trifluoroethyl)amino)propanoic acid, O=C([C@H](CN(CC(=O)[*:3])CC(F)(F)F)N[*:1])[*:2]; PyrS2 = (S)-3-amino-1-((pent-4-en-1-yloxy)carbonyl)pyrrolidine-3-carboxylic acid, C=CCCCOC(=O)N1CC[C@@](N[*:1])(C(=O)[*:2])C1; MePpzAsn = (S)-2-amino-4-(4-methylpiperazin-1-yl)-4-oxobutanoic acid, CN1CCN(C(=O)C[C@H](N[*:1])C(=O)[*:2])CC1; F2PipNva = (S)-2-amino-5-(4,4-difluoropiperidin-1-yl)pentanoic acid, O=C([C@H](CCCN1CCC(F)(F)CC1)N[*:1])[*:2]; B5(25) = 2-amino-2-(pent-4-en-1-yl)hept-6-enoic acid (stitching residue), C=CCCCC(CCCC=C)(N[*:1])C(=O)[*:2]; MorphAsn = (S)-2-amino-4-morpholino-4-oxobutanoic acid, O=C(C[C@H](N[*:1])C(=O)[*:2])N1CCOCC1; B5(3) = 2,2-bis(4-pentenyl)glycine (stitching residue), C=CCCCC(CCCC=C)(N[*:1])C(=O)[*:2]; Nva(5-morpholino) = N[C@@H](CCCN1CCOCC1)C(=O)O; Phe(3-COOH) = N[C@@H](Cc1cccc(C(=O)O)c1)C(=O)O; 2F3MeF = Cc1cccc(C[C@H](N[*:1])C(=O)[*:2])c1F; Phe(2-Cl) = N[C@@H](Cc1ccccc1Cl)C(=O)O; Bta = N[C@@H](Cc1csc2ccccc12)C(=O)O; Lys(iPr) = CC(C)NCCCC[C@H](N)C(=O)O; αAllylPro = C=CC[C@@]1(C(=O)O)CCCN1; tBuAla = CC(C)(C)C[C@H](N)C(=O)O; 3Thi = N[C@@H](Cc1ccsc1)C(=O)O
These binders were tested against full-length beta-Catenin (Uniprot ID P35222) (Homo sapiens (Human)) (UniProt P35222) (assay: fluorescence polarization competition against 5FAM-TCF4 10-53 on full-length beta-catenin).

IC50 | Binder
4290 nM | Ac-[αAllylPro]N[tBuAla][B5(4)]DT[Lys(iPr)]AFW[PyrS2]F[Bta]Q-NH2 (staple 1-4, 4-11) [I-1600]
10000 nM | Ac-[αAllylPro]D[tBuAla][B5(4)]NTAAFL[PyrS2″][3Thi][Bta]Q-NH2 (staple 1-4, 4-11) [I-1618]
2020 nM | Ac-[αAllylPro]N[tBuAla][B5(4)]DT[Lys(iPr)]AFS[PyrS2]F[Bta]Q-NH2 (staple 1-4, 4-11) [I-1601]
6990 nM | Ac-[αAllylPro]N[tBuAla][B5(4)]DT[Lys(iPr)]ASL[PyrS2]F[Bta]Q-NH2 (staple 1-4, 4-11) [I-1597]
76 nM | Ac-[αAllylPro]D[tBuAla][B5(4)]D[Phe(3-COOH)]AAFL[PyrS2][2F3MeF][Bta][F2PipNva]-NH2 (staple 1-4, 4-11) [I-1608]
9 nM | Ac-[αAllylPro]D[tBuAla][B5(3)]D[TfeGA]AAFT[PyrS2″][Phe(2-Cl)][Bta][Lys(iPr)]-NH2 (staple 1-4, 4-11) [I-1615]
15 nM | Ac-[αAllylPro]D[tBuAla][B5(3)]D[Phe(3-COOH)]AAFL[PyrS2″][2F3MeF][Bta][MorphAsn]-NH2 (staple 1-4, 4-11) [I-1614]
1080 nM | Ac-[αAllylPro]N[tBuAla][B5(4)]DT[Lys(iPr)]AFF[PyrS2]F[Bta]Q-NH2 (staple 1-4, 4-11) [I-1599]
362 nM | Ac-[αAllylPro]N[tBuAla][B5(4)]DT[Lys(iPr)]AFN[PyrS2]F[Bta]Q-NH2 (staple 1-4, 4-11) [I-1602]
19 nM | Ac-[αAllylPro]D[tBuAla][B5(3)]D[Phe(3-COOH)]AAFL[PyrS2][2F3MeF][Bta][Nva(5-morpholino)]-NH2 (staple 1-4, 4-11) [I-1610]
15 nM | Ac-[αAllylPro]D[tBuAla][B5(3)]D[TfeGA]AAFT[PyrS2][Phe(2-Cl)][Bta][Nva(5-morpholino)]-NH2 (staple 1-4, 4-11) [I-1609]
10 nM | Ac-[αAllylPro]D[tBuAla][B5(3)]D[TfeGA]AAFT[PyrS2″][Phe(2-Cl)][Bta][MePpzAsn]-NH2 (staple 1-4, 4-11) [I-1611]
9 nM | Ac-[αAllylPro]D[tBuAla][B5(3)]D[TfeGA]AAFT[PyrS2″][Phe(2-Cl)][Bta][MorphAsn]-NH2 (staple 1-4, 4-11) [I-1613]
10 nM | Ac-[αAllylPro]D[tBuAla][B5(3)]D[Phe(3-COOH)]AAFL[PyrS2″][2F3MeF][Bta][MePpzAsn]-NH2 (staple 1-4, 4-11) [I-1612]
49 nM | Ac-[αAllylPro]D[tBuAla][B5(4)]D[TfeGA]AAFT[PyrS2][Phe(2-Cl)][Bta][F2PipNva]-NH2 (staple 1-4, 4-11) [I-1607]

Each binder was assayed against full-length beta-Catenin (Uniprot ID P35222) (Homo sapiens (Human)) (UniProt P35222) (assay: fluorescence polarization competition vs 5FAM-TCF4(10-53) on full-length beta-catenin).
Target sequence in this assay (P35222 2-781 limits assumed): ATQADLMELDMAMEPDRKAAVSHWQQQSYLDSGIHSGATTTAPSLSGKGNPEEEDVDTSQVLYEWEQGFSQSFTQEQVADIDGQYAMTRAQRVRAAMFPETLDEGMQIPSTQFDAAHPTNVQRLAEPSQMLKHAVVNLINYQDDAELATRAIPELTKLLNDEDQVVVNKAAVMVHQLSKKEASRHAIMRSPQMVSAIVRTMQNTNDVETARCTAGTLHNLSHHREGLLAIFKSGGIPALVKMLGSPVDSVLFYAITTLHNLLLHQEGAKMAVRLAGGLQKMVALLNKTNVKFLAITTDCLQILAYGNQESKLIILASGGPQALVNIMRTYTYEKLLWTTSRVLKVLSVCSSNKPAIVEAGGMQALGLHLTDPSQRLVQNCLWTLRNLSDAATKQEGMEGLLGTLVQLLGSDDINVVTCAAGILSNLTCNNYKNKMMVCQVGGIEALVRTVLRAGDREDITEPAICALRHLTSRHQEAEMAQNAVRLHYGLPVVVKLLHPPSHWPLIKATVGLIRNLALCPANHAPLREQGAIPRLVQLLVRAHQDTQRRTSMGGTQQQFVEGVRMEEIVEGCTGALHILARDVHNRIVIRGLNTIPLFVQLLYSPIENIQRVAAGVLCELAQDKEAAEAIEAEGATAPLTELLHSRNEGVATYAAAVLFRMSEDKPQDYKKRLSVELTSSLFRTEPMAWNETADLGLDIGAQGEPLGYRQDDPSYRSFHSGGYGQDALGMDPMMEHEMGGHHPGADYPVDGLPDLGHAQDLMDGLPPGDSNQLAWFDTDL

IC50 | Binder
402 nM | Ac-[αAllylPro]D[tBuAla][B5(25)]D[TfeGA]AAFF[PyrS2″][3Thi][Bta]S-NH2 (staple 1-4, 4-11; not fully specified) [I-963]

The binders below were run against full-length beta-Catenin (Uniprot ID P35222) (Homo sapiens (Human)) (UniProt P35222) (assay: fluorescence polarization competition; 10 nM full-length beta-catenin + 10 nM 5FAM-TCF4(10-53) probe).
Target sequence in this assay (P35222 whole entry): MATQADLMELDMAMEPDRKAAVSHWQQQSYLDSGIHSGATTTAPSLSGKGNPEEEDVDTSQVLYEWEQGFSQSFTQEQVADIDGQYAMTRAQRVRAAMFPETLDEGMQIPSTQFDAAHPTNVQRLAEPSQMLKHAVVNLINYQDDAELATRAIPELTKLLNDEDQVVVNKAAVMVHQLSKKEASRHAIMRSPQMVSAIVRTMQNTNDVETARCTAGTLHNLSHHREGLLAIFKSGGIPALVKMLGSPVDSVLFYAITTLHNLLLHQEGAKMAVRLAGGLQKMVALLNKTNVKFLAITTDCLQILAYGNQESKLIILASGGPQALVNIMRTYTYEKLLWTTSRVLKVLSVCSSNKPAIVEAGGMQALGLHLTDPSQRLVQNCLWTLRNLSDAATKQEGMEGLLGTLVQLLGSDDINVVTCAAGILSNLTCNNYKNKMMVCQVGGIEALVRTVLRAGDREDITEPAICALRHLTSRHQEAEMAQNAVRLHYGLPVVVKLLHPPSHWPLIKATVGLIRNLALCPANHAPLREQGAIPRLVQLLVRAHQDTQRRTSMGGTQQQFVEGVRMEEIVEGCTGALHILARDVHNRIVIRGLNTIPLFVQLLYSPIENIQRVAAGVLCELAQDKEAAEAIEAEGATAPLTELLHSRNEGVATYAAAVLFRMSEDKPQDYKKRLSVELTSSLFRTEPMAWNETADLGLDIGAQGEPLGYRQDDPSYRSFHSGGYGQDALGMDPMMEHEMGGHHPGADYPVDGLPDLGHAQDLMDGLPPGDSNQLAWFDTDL

EC50 | Binder
402 nM | Ac-[αAllylPro]D[tBuAla][B5(25)]D[TfeGA]AAFF[PyrS2″][3Thi][Bta]S-NH2 (staple 1-4, 4-11; not fully specified) [I-963]
